What all share (experiment): SPR
On the technique in general: SPR reads the build-up and loss of mass on a sensor chip optically.

One assay deals with T1, Human BCMA-Avi-His (human, UniProt Q02223 2-54).
T1 chain: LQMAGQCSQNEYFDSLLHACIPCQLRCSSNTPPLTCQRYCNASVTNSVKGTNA

Another assay deals with Cyno BCMA-Avi-His (cynomolgus, UniProt A0A2K5UD97 2-53).
The target of a further assay is T2, Human BCMA DTA-His (human;, UniProt Q02223 1-54; P00588 33-225).
T2 chain: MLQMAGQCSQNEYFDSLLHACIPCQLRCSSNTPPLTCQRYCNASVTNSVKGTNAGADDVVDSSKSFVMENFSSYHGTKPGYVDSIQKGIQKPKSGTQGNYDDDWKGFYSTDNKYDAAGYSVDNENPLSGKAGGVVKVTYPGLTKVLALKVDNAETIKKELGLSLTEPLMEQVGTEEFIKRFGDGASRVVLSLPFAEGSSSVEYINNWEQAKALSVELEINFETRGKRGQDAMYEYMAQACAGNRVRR

Another assay addresses Cyno BCMA DTA-His (cynomolgus;, UniProt A0A2K5UD97 1-53; P00588 33-225).

Chain of Cyno BCMA-Avi-His (A0A2K5UD97 entry or part of it): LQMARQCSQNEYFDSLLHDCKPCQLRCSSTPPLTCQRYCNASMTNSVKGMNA

B1: CA10_parental (antibody, V domains shown)
VH: QVQLVESGGGVVQPGRSLRLSCAASGFTFSNFGMHWVRQAPGRGLEWVAVIWSDETNRYYADSVKGRFTVSRDNVKSTVYLQMNSLISEDTAVYYCARDQQYCSSDSCFTWFDPWGQGTLVTVSS
VL: QVVVTQESALTTSPGETVTLTCRSSTGTVTPSNYANWVQEKPDHFFTGLIGDNNSRPPGVPARFSASLIGDKAALTITGAQTEDEAMYFCALWFGNQWVFGGGTKVTVL
On to B1, for which the Kd (commonly a measure of binding affinity in units of concentration) came out at 0.0694 nM with Human BCMA-Avi-His, 1.43 nM in the assay with Cyno BCMA-Avi-His, 0.393 nM in the assay with Human BCMA DTA-His and 0.0314 nM with Cyno BCMA DTA-His.

B2: CA10 Variant 3 (antibody, V domains shown)
VH: QVQLVESGGGVVQPGRSLRLSCAASGFTFSNFGMHWVRQAPGRGLEWVAVIWSDETNRYYADSVKGRFTVSRDNVKSTVYLQMNSLISEDTAVYYCARDQQYCSSDSCFTWFDPWGQGTLVTVSS
VL: QTVVTQEPSLTVSPGGTVTLTCASSTGAVTPSNYANWVQQKPGQAPRGLIGDNNIKPPWTPARFSGSLLGGKAALTLSGVQPEDEAEYYCALWYGGQWVFGGGTKLTVL
On to B2, for which the Kd with Human BCMA-Avi-His is 0.182 nM; with Cyno BCMA-Avi-His, 11.6 nM; with Human BCMA DTA-His it was 0.247 nM; with Cyno BCMA DTA-His, 0.861 nM.

B3: CA10 Variant 6 (antibody, V domains shown)
VH: QVQLVESGGGVVQPGRSLRLSCAASGFTFSNFGMHWVRQAPGRGLEWVAVIWSDETNRYYADSVKGRFTVSRDNVKSTVYLQMNSLISEDTAVYYCARDQQYCSSDSCFTWFDPWGQGTLVTVSS
VL: QTVVTQEPSLTVSPGGTVTLTCASSTGTVTPSNYANWVQQKPGQFPRGLIGDNNSRPPGTPARFSASLLGGKAALTLSGVQPEDEAEYYCALWFGNQWVFGGGTKLTVL
B3: the Kd with Human BCMA-Avi-His is 0.075 nM; with Cyno BCMA-Avi-His it was 1.18 nM; in the assay with Human BCMA DTA-His, 0.0399 nM; with Cyno BCMA DTA-His, 0.0962 nM.

B4: CA10 Variant 1 (antibody, V domains shown)
VH: QVQLVESGGGVVQPGRSLRLSCAASGFTFSNFGMHWVRQAPGRGLEWVAVIWSDETNRYYADSVKGRFTVSRDNVKSTVYLQMNSLISEDTAVYYCARDQQYCSSDSCFTWFDPWGQGTLVTVSS
VL: QTVVTQEPSLTVSPGGTVTLTCRSSTGTVTPSNYANWVQQKPDHFFTGLIGDNNSRPPGVPARFSASLIGDKAALTLSGVQPEDEAEYYCALWFGNQWVFGGGTKLTVL
On to B4, for which the Kd came out at 0.0573 nM with Human BCMA-Avi-His, 0.732 nM in the assay with Cyno BCMA-Avi-His, 0.247 nM in the assay with Human BCMA DTA-His and 0.0418 nM with Cyno BCMA DTA-His.

B5: CA10 Variant 4 (antibody, V domains shown)
VH: QVQLVESGGGVVQPGRSLRLSCAASGFTFSNFGMHWVRQAPGRGLEWVAVIWSDETNRYYADSVKGRFTVSRDNVKSTVYLQMNSLISEDTAVYYCARDQQYCSSDSCFTWFDPWGQGTLVTVSS
VL: QTVVTQEPSLTVSPGGTVTLTCASSTGAVTPGYYANWVQQKPGQAPRGLIGDNNNKPPWTPARFSGSLLGGKAALTLSGVQPEDEAEYYCALYYGGQWVFGGGTKLTVL
Turning to B5, the Kd in the assay with Human BCMA-Avi-His turned out to be 2.57 nM; with Cyno BCMA-Avi-His, 64.2 nM; in the assay with Human BCMA DTA-His it was 3.07 nM; with Cyno BCMA DTA-His, 13 nM.

B6: CA10 Variant 2 (antibody, V domains shown)
VH: QVQLVESGGGVVQPGRSLRLSCAASGFTFSNFGMHWVRQAPGRGLEWVAVIWSDETNRYYADSVKGRFTVSRDNVKSTVYLQMNSLISEDTAVYYCARDQQYCSSDSCFTWFDPWGQGTLVTVSS
VL: QTVVTQEPSLTVSPGGTVTLTCASSTGTVTPSNYANWVQQKPGQAPRGLIGDNNSRPPGTPARFSASLLGGKAALTLSGVQPEDEAEYYCALWFGNQWVFGGGTKLTVL
With B6, the equilibrium dissociation constant (Kd) stood at 0.0666 nM in the assay with Human BCMA-Avi-His, 1.89 nM with Cyno BCMA-Avi-His, 0.478 nM in the assay with Human BCMA DTA-His and 0.0915 nM with Cyno BCMA DTA-His.

B7: CA10 Variant 5 (CA10_PE_V5) (antibody, V domains shown)
VH: QVQLVESGGGVVQPGRSLRLSCAASGFTFSNFGMHWVRQAPGRGLEWVAVIWSDETNRYYADSVKGRFTVSRDNVKSTVYLQMNSLISEDTAVYYCARDQQYCSSDSCFTWFDPWGQGTLVTVSS
VL: QTVVTQEPSLTVSPGGTVTLTCASSTGAVTSGYYANWVQQKPGQAPRALIGDNNIKPSWTPARFSGSLLGGKAALTLSGVQPEDEAEYYCALYYGGQWVFGGGTKLTVL
Consider B7, for which the Kd with Cyno BCMA-Avi-His came out at 8.55 nM; with Cyno BCMA DTA-His it was 1.26 nM.

The values are drawn from patent publication US20240117062A1 (published 2024).
